In patent US20180155451A1 (published 2018):

T1: FcγRIIa H (FcγRIIa type H, His at position 131), extracellular domain with C-terminal His tag (human, UniProt P12318 34-217)
T1 construct: extracellular domain; Expressed in FreeStyle293 cells; analyte in the Biacore assay; also called FcgRIIa H; 2aH; not shown: His tag at the C terminus
T1 sequence (looked up): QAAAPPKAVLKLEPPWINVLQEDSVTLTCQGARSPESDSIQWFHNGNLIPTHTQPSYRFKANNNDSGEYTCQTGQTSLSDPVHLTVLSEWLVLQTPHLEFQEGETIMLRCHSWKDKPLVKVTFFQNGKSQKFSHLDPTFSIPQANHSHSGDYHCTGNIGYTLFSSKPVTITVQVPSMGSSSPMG

T2: FcγRIIb, extracellular domain with C-terminal His tag (human, UniProt P31994 43-217)
T2 construct: extracellular domain; Expressed in FreeStyle293 cells; analyte in the Biacore assay; also called FcgRIIb; 2b; not shown: His tag at the C terminus
T2 sequence (looked up): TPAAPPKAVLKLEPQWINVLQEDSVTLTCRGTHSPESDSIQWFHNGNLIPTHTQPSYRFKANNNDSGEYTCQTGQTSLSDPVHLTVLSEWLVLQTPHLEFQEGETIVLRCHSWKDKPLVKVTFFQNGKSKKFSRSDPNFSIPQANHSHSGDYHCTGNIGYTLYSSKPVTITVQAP


Tests used:
[1] = target: T1, FcγRIIa H (FcγRIIa type H, His at …); experiment: SPR Biacore; He/Con_2aH divided by He/Con_2b (reference: FcgRIIb)
[2] = target: T1, FcγRIIa H (FcγRIIa type H, His at …); experiment: SPR Biacore, captured antibody, FcgR analyte; GpH7-A5/GpH7-B3/GpL16-k0 = 100
[3] = target: T2, FcγRIIb, extracellular domain with …; experiment: as above

Row | Binder | He_2aH/2b (IIaH/IIb) [1] | He/Con_2aH [2] | He/Con_2b [3]
1 | GpH7-A5/GpH7-B3 variant I332_18N/GpL16-k0 (antibody, human IgG1, kappa, He Ab; IgG1; mutation in one H chain only; also called He Ab) heavy 1: not shown heavy 2: not shown light: DIVMTQSPLSLPVTPGEPASISCQASESLVHSNRNTYLHWYLQKPGQSPQLLIYKVSNRFSGVPDRFSGSGSGTDFTLKISRVEAEDVGVYYCSQNTHVPPTFGQGTKVEIERTVAAPSVFIFPPSDEQLKSGTASVVCLLNNFYPREAKVQWKVDNALQSGNSQESVTEQDSKDSTYSLSSTLTLSKADYEKHKVYACEVTHQGLSSPVTKSFNRGEC | 1.22 | 110 % of HeCon Ab | 89.9 % of HeCon Ab
2 | GpH7-A5/GpH7-B3 variant P329_15Y/GpL16-k0 (antibody, human IgG1, kappa, He Ab; IgG1; mutation in one H chain only; also called He Ab) heavy 1: not shown heavy 2: not shown light: DIVMTQSPLSLPVTPGEPASISCQASESLVHSNRNTYLHWYLQKPGQSPQLLIYKVSNRFSGVPDRFSGSGSGTDFTLKISRVEAEDVGVYYCSQNTHVPPTFGQGTKVEIERTVAAPSVFIFPPSDEQLKSGTASVVCLLNNFYPREAKVQWKVDNALQSGNSQESVTEQDSKDSTYSLSSTLTLSKADYEKHKVYACEVTHQGLSSPVTKSFNRGEC | 1.5 | 68.7 % of HeCon Ab | 45.7 % of HeCon Ab
3 | GpH7-A5/GpH7-B3 variant P329_02A/GpL16-k0 (antibody, human IgG1, kappa, He Ab; IgG1; mutation in one H chain only; also called He Ab) heavy 1: not shown heavy 2: not shown light: DIVMTQSPLSLPVTPGEPASISCQASESLVHSNRNTYLHWYLQKPGQSPQLLIYKVSNRFSGVPDRFSGSGSGTDFTLKISRVEAEDVGVYYCSQNTHVPPTFGQGTKVEIERTVAAPSVFIFPPSDEQLKSGTASVVCLLNNFYPREAKVQWKVDNALQSGNSQESVTEQDSKDSTYSLSSTLTLSKADYEKHKVYACEVTHQGLSSPVTKSFNRGEC | 1.62 | 65.7 % of HeCon Ab | 40.5 % of HeCon Ab
4 | GpH7-A5/GpH7-B3 variant P329_03V/GpL16-k0 (antibody, human IgG1, kappa, He Ab; IgG1; mutation in one H chain only; also called He Ab) heavy 1: not shown heavy 2: not shown light: DIVMTQSPLSLPVTPGEPASISCQASESLVHSNRNTYLHWYLQKPGQSPQLLIYKVSNRFSGVPDRFSGSGSGTDFTLKISRVEAEDVGVYYCSQNTHVPPTFGQGTKVEIERTVAAPSVFIFPPSDEQLKSGTASVVCLLNNFYPREAKVQWKVDNALQSGNSQESVTEQDSKDSTYSLSSTLTLSKADYEKHKVYACEVTHQGLSSPVTKSFNRGEC | 1.57 | 60.4 % of HeCon Ab | 38.5 % of HeCon Ab
5 | GpH7-A5/GpH7-B3 variant I336_19Q/GpL16-k0 (antibody, human IgG1, kappa, He Ab; IgG1; mutation in one H chain only; also called He Ab) heavy 1: not shown heavy 2: not shown light: DIVMTQSPLSLPVTPGEPASISCQASESLVHSNRNTYLHWYLQKPGQSPQLLIYKVSNRFSGVPDRFSGSGSGTDFTLKISRVEAEDVGVYYCSQNTHVPPTFGQGTKVEIERTVAAPSVFIFPPSDEQLKSGTASVVCLLNNFYPREAKVQWKVDNALQSGNSQESVTEQDSKDSTYSLSSTLTLSKADYEKHKVYACEVTHQGLSSPVTKSFNRGEC | 1.27 | 73.7 % of HeCon Ab | 58.2 % of HeCon Ab
6 | GpH7-A5/GpH7-B3 variant N325_11K/GpL16-k0 (antibody, human IgG1, kappa, He Ab; IgG1; mutation in one H chain only; also called He Ab) heavy 1: not shown heavy 2: not shown light: DIVMTQSPLSLPVTPGEPASISCQASESLVHSNRNTYLHWYLQKPGQSPQLLIYKVSNRFSGVPDRFSGSGSGTDFTLKISRVEAEDVGVYYCSQNTHVPPTFGQGTKVEIERTVAAPSVFIFPPSDEQLKSGTASVVCLLNNFYPREAKVQWKVDNALQSGNSQESVTEQDSKDSTYSLSSTLTLSKADYEKHKVYACEVTHQGLSSPVTKSFNRGEC | 1.55 | 16.1 % of HeCon Ab | 10.4 % of HeCon Ab
7 | GpH7-A5/GpH7-B3 variant P329_08L/GpL16-k0 (antibody, human IgG1, kappa, He Ab; IgG1; mutation in one H chain only; also called He Ab) heavy 1: not shown heavy 2: not shown light: DIVMTQSPLSLPVTPGEPASISCQASESLVHSNRNTYLHWYLQKPGQSPQLLIYKVSNRFSGVPDRFSGSGSGTDFTLKISRVEAEDVGVYYCSQNTHVPPTFGQGTKVEIERTVAAPSVFIFPPSDEQLKSGTASVVCLLNNFYPREAKVQWKVDNALQSGNSQESVTEQDSKDSTYSLSSTLTLSKADYEKHKVYACEVTHQGLSSPVTKSFNRGEC | 1.56 | 45.4 % of HeCon Ab | 29.1 % of HeCon Ab
8 | GpH7-A5/GpH7-B3 variant I336_20W/GpL16-k0 (antibody, human IgG1, kappa, He Ab; IgG1; mutation in one H chain only; also called He Ab) heavy 1: not shown heavy 2: not shown light: DIVMTQSPLSLPVTPGEPASISCQASESLVHSNRNTYLHWYLQKPGQSPQLLIYKVSNRFSGVPDRFSGSGSGTDFTLKISRVEAEDVGVYYCSQNTHVPPTFGQGTKVEIERTVAAPSVFIFPPSDEQLKSGTASVVCLLNNFYPREAKVQWKVDNALQSGNSQESVTEQDSKDSTYSLSSTLTLSKADYEKHKVYACEVTHQGLSSPVTKSFNRGEC | 1.52 | 30.9 % of HeCon Ab | 20.3 % of HeCon Ab
9 | GpH7-A5/GpH7-B3 variant P329_13S/GpL16-k0 (antibody, human IgG1, kappa, He Ab; IgG1; mutation in one H chain only; also called He Ab) heavy 1: not shown heavy 2: not shown light: DIVMTQSPLSLPVTPGEPASISCQASESLVHSNRNTYLHWYLQKPGQSPQLLIYKVSNRFSGVPDRFSGSGSGTDFTLKISRVEAEDVGVYYCSQNTHVPPTFGQGTKVEIERTVAAPSVFIFPPSDEQLKSGTASVVCLLNNFYPREAKVQWKVDNALQSGNSQESVTEQDSKDSTYSLSSTLTLSKADYEKHKVYACEVTHQGLSSPVTKSFNRGEC | 1.64 | 67.3 % of HeCon Ab | 41 % of HeCon Ab

Continued, values first:

Row | He_2aH/2b (IIaH/IIb) [1] | He/Con_2aH [2] | He/Con_2b [3] | Binder
10 | 1.56 | 29.9 % of HeCon Ab | 19.1 % of HeCon Ab | GpH7-A5/GpH7-B3 variant N325_12R/GpL16-k0 (antibody, human IgG1, kappa, He Ab; IgG1; mutation in one H chain only; also called He Ab) heavy 1: not shown heavy 2: not shown light: DIVMTQSPLSLPVTPGEPASISCQASESLVHSNRNTYLHWYLQKPGQSPQLLIYKVSNRFSGVPDRFSGSGSGTDFTLKISRVEAEDVGVYYCSQNTHVPPTFGQGTKVEIERTVAAPSVFIFPPSDEQLKSGTASVVCLLNNFYPREAKVQWKVDNALQSGNSQESVTEQDSKDSTYSLSSTLTLSKADYEKHKVYACEVTHQGLSSPVTKSFNRGEC
11 | 2.74 | 46.2 % of HeCon Ab | 16.9 % of HeCon Ab | GpH7-A5/GpH7-B3 variant P329_11K/GpL16-k0 (antibody, human IgG1, kappa, He Ab; IgG1; mutation in one H chain only; also called He Ab) heavy 1: not shown heavy 2: not shown light: DIVMTQSPLSLPVTPGEPASISCQASESLVHSNRNTYLHWYLQKPGQSPQLLIYKVSNRFSGVPDRFSGSGSGTDFTLKISRVEAEDVGVYYCSQNTHVPPTFGQGTKVEIERTVAAPSVFIFPPSDEQLKSGTASVVCLLNNFYPREAKVQWKVDNALQSGNSQESVTEQDSKDSTYSLSSTLTLSKADYEKHKVYACEVTHQGLSSPVTKSFNRGEC
12 | 1.5 | 43.7 % of HeCon Ab | 29.1 % of HeCon Ab | GpH7-A5/GpH7-B3 variant P329_06M/GpL16-k0 (antibody, human IgG1, kappa, He Ab; IgG1; mutation in one H chain only; also called He Ab) heavy 1: not shown heavy 2: not shown light: DIVMTQSPLSLPVTPGEPASISCQASESLVHSNRNTYLHWYLQKPGQSPQLLIYKVSNRFSGVPDRFSGSGSGTDFTLKISRVEAEDVGVYYCSQNTHVPPTFGQGTKVEIERTVAAPSVFIFPPSDEQLKSGTASVVCLLNNFYPREAKVQWKVDNALQSGNSQESVTEQDSKDSTYSLSSTLTLSKADYEKHKVYACEVTHQGLSSPVTKSFNRGEC
13 | 1.56 | 53.8 % of HeCon Ab | 34.6 % of HeCon Ab | GpH7-A5/GpH7-B3 variant P329_07I/GpL16-k0 (antibody, human IgG1, kappa, He Ab; IgG1; mutation in one H chain only; also called He Ab) heavy 1: not shown heavy 2: not shown light: DIVMTQSPLSLPVTPGEPASISCQASESLVHSNRNTYLHWYLQKPGQSPQLLIYKVSNRFSGVPDRFSGSGSGTDFTLKISRVEAEDVGVYYCSQNTHVPPTFGQGTKVEIERTVAAPSVFIFPPSDEQLKSGTASVVCLLNNFYPREAKVQWKVDNALQSGNSQESVTEQDSKDSTYSLSSTLTLSKADYEKHKVYACEVTHQGLSSPVTKSFNRGEC
14 | 1.65 | 62.4 % of HeCon Ab | 37.9 % of HeCon Ab | GpH7-A5/GpH7-B3 variant P329_14T/GpL16-k0 (antibody, human IgG1, kappa, He Ab; IgG1; mutation in one H chain only; also called He Ab) heavy 1: not shown heavy 2: not shown light: DIVMTQSPLSLPVTPGEPASISCQASESLVHSNRNTYLHWYLQKPGQSPQLLIYKVSNRFSGVPDRFSGSGSGTDFTLKISRVEAEDVGVYYCSQNTHVPPTFGQGTKVEIERTVAAPSVFIFPPSDEQLKSGTASVVCLLNNFYPREAKVQWKVDNALQSGNSQESVTEQDSKDSTYSLSSTLTLSKADYEKHKVYACEVTHQGLSSPVTKSFNRGEC
15 | 1.69 | 66.1 % of HeCon Ab | 39.1 % of HeCon Ab | GpH7-A5/GpH7-B3 variant P329_16H/GpL16-k0 (antibody, human IgG1, kappa, He Ab; IgG1; mutation in one H chain only; also called He Ab) heavy 1: not shown heavy 2: not shown light: DIVMTQSPLSLPVTPGEPASISCQASESLVHSNRNTYLHWYLQKPGQSPQLLIYKVSNRFSGVPDRFSGSGSGTDFTLKISRVEAEDVGVYYCSQNTHVPPTFGQGTKVEIERTVAAPSVFIFPPSDEQLKSGTASVVCLLNNFYPREAKVQWKVDNALQSGNSQESVTEQDSKDSTYSLSSTLTLSKADYEKHKVYACEVTHQGLSSPVTKSFNRGEC
16 | 2.63 | 46.4 % of HeCon Ab | 17.6 % of HeCon Ab | GpH7-A5/GpH7-B3 variant P329_12R/GpL16-k0 (antibody, human IgG1, kappa, He Ab; IgG1; mutation in one H chain only; also called He Ab) heavy 1: not shown heavy 2: not shown light: DIVMTQSPLSLPVTPGEPASISCQASESLVHSNRNTYLHWYLQKPGQSPQLLIYKVSNRFSGVPDRFSGSGSGTDFTLKISRVEAEDVGVYYCSQNTHVPPTFGQGTKVEIERTVAAPSVFIFPPSDEQLKSGTASVVCLLNNFYPREAKVQWKVDNALQSGNSQESVTEQDSKDSTYSLSSTLTLSKADYEKHKVYACEVTHQGLSSPVTKSFNRGEC
17 | 1.38 | 44.5 % of HeCon Ab | 32.2 % of HeCon Ab | GpH7-A5/GpH7-B3 variant P329_04F/GpL16-k0 (antibody, human IgG1, kappa, He Ab; IgG1; mutation in one H chain only; also called He Ab) heavy 1: not shown heavy 2: not shown light: DIVMTQSPLSLPVTPGEPASISCQASESLVHSNRNTYLHWYLQKPGQSPQLLIYKVSNRFSGVPDRFSGSGSGTDFTLKISRVEAEDVGVYYCSQNTHVPPTFGQGTKVEIERTVAAPSVFIFPPSDEQLKSGTASVVCLLNNFYPREAKVQWKVDNALQSGNSQESVTEQDSKDSTYSLSSTLTLSKADYEKHKVYACEVTHQGLSSPVTKSFNRGEC
